This note sets out measurements from article PMC12377726 (Proceedings of the National Academy of Sciences of the …, 2025).

Residue numbers refer to the chain shown, from its start.

B1: G001_LD_V07A_VRC01c_46 (antibody, V domains shown)
VH: QVQLVQSGAEVKKPGASVKVSCKASGYTFTDYYMHWVRQAPGQGLEWMGWINPNSGGTNYAQKFQGWVTMTRDTSISTAYMELTRLRSDDTAVYYCAVRKNGGDCSFCFGYWGQGTLVTVSS
VL: QSVLTQPPSVSGAPGQRVTISCTGSSSNIGAGYDVHWYQQLPGTAPKLLIYGNNNRPSGVPDRFSGSKSGTSASLAITGLQAEDEADYYCQSYEMFGGGTKLTVL
B2: G001_gp1_V08_VRC01c_115 (antibody, V domains shown)
VH: QVQLVQSGAEVKKPGASVKVFCKTSGYIFTDYYMHWVRQAPGQGLEWMGWINPNSGGTNYAQKFQGRVTMTRDTSISTAYMELSRLRSDDTAVYYCARAYYGDYGDYWGQGTLVTVSS
VL: DIVMTQSPDSLAVSLGERATINCKSSQSVLYSSDNKNYLSWYQQKPRQPPKLLIYWASTRESGVPDRFTGSGSGTDFTLTISSLQAEDVAVYYCQQYWTFGQGTKVEIK
B3: G001_gp1_V08_VRC01c_123 (antibody, V domains shown)
VH: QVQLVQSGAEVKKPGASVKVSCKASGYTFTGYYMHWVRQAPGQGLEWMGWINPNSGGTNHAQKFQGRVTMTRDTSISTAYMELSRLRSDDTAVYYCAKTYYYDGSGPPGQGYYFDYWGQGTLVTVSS
VL: EIVMTQSPATLSVSPGERATLSCRANQSVSSNLAWYQQKPGQAPRLLIYGASTRATGIPARFSGSGSGTEFTLTISSLQSEDFAVYYCQQYNSFGQGTKLEIK
B4: G001_gp1_V08_VRC01c_136 (antibody, V domains shown)
VH: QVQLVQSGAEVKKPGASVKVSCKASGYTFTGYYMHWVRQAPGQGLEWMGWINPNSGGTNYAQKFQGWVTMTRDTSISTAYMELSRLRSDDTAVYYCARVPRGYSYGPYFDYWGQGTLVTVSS
VL: B3 VL with N26S, N92S, S93T, Q96G, L100V
B5: G001_gp1_V08_VRC01c_134 (antibody, V domains shown)
VH: QVQLVQSGAEVKKPGASVKVSCKASGYTFTDYYMHWVRQAPGQGLEWMGWINPNSGGTNYAQKFQGWVTMTRDTSISTAYMELSRLTSDDTAVYYCATSIKATNYNWNFDLWGRGTLVTVSS
VL: EIVLTQSPGTLSLSPGERATLSCRASQSVTSNLAWYQQKPGQAPRLLIYGASSRATGIPDRFSGSGSGTDFTLTISRLEPEDFAVYYCQQYESFGQGTKLEIK
B6: G001_LD_V07A_VRC01c_40 (antibody, V domains shown)
VH: not shown
VL: DIQMTQSPSSLSASVGDRVTITCQASQDISNYLNWYQQKPGKAPKLLIYDASNLETGVPSRFSGSASGTESSFTISSLQPEDIATYYCQQYETFGPGTKVDIK
B7: G001_gp1_V08_VRC01c_126 (antibody, V domains shown)
VH: QVQLVQSGAEVKKPGASVKVSCKASGYTFTGYYMHWVRQAPGQGLEWMGWINPNSGGTNYAQKFQDWVTMTRDTSISTAYMELNRLRSDDAAIYYCARADIVATIWALDYWGQGTLVTVSS
VL: B6 VL with N31T, A66G, E70D, S71F, S72T, I83S, E92G, P96Q, D101E
B8: G001_gp1_V08_VRC01c_119 (antibody, V domains shown)
VH: QVQLVQSGADVKKPGASVKVSCKASGYTFSGYYMHWVRQAPGQGLEWMGWINPNSGGTNYAQNFQGRVTMTRDTSISTAYMELSSLTSDDTAVYYCASPRYSNGNRCYRYWGQGTLVTVSS
VL: B6 VL with Q38H, K39H, K42R, A66G, E70D, S71F, S72T, I83V, E92D, T93Y
B9: G001_gp1_V08_VRC01c_117 (antibody, V domains shown)
VH: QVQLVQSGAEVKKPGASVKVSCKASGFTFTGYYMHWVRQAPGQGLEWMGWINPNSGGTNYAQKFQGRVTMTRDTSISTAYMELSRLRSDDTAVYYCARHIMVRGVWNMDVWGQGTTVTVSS
VL: B6 VL with T56K, S65G, A66G, E70D, S71F, S72T, T93F
B10: G001_gp1_V08_VRC01c_135 (antibody, V domains shown)
VH: QVQLVQSGAEVKKPGASVKVSCKASGYIFTGYYMHWVRQAPGQGLEWMGWINPNSGGTNYAQKFQGWVTMTRDTSISTAYMELSRLRSDDTAVYYCASSVGVPAARGWAFDMWGQGTMVTVSS
VL: B6 VL with N53D, A66G, E70D, S71F, S72T, E92D, T93L
B11: G001_gp1_V08_VRC01c_132 (antibody, V domains shown)
VH: QVQLVQSGAEVKKPGASVKVSCKASGYTFSGYYMHWVRQAPGQGLEWMGWINPNSGGTNYAQKFQGWVTMTRDTSISTAYMELSRLKSDDTAVYYCARVEHTSGWCFDSWGQGTLVTVSS
VL: B6 VL with Y49S, A66G, E70D, S71F, S72T, E92D, T93I, D101E
B12: G001_gp1_V07_VRC01c_99 (antibody, V domains shown)
VH: QVQLVQSGAEVKKPGASVKVSCKASGYTFTDYYMHWVRQAPGQGLEWMGWINPNSGGTNYAQKFQGRVTMTRDTSISTAYMDLSRLRSDDTAMYYCATSPHEYSTSWEFDSWGQGTLVTVSS
VL: DIVLTQSPGTLSLSPGERATLSCRASQSVSSSNLAWYQQKPGQAPRLLIYGAFKRATGIPDRFSGSGSGTDFTLTISRLEPEDFAVYYCQQYETFGQGTKVEIK
B13: G001_gp1_V08_VRC01c_128 (antibody, V domains shown)
VH: B5 VH with T30I, K63Q, T87R, K101V, T103A, N104G, Y105S, N106Y, N108Y
VL: B12 VL with D1E, S30T, N33Y, Q39K, F53S, K54S, T94F, V101L
B14: G001_gp1_V08_VRC01c_139 (antibody, V domains shown)
VH: QVQLVQSGAEVKKPGASVKVSCKASGYTFTGSYMHWVRQAPGQGLEWMGWINPNSGGTNYAQKFQGRVTLTRDTSISTAYMELTRLRSDDTTVFYCATSRSGDWYFDLWGRGTLVTVSS
VL: B12 VL with D1E, V29A, N33Y, F53S, K54S, V86M, V101L
B15: G001_LD_V07A_VRC01c_65 (antibody, V domains shown)
VH: QVQLVQSGAEVKKPGASVKVSCKASGYTFTGYYMHWVRQAPGQGLEWMGWINPNSGGTNYAQKFQGYVTMTRDTSISTAFMELSRLRSDDAAVYYCATSIAAPDSYWYFDLWGRGTLVTVSS
VL: B12 VL with D1E, S30T, N33Y, F53S, K54S, T94F, V101L
B16: G001_gp1_V08_VRC01c_131 (antibody, V domains shown)
VH: QVQLVQSGAEVKKPGASVKVSCKASGYTFTDYYIYWLRQAPGHGLEWMGWINPNSGGTNYAQKFQDWVTMTRDTSISTAYMELSRLSSDDTAVYYCARRNDYLGGSYRYSAFDIWGQGTMVTVSS
VL: B12 VL with D1E, S28K, S32R, N33Y, F53S, K54S, V101L
B17: G001_gp1_V08_VRC01c_130 (antibody, V domains shown)
VH: QVQLVQSGAEVKKPGASVKVSCKASGYTFTGYYMHWVRQAPGQGLEWLGWINPNSGGTNYAQKFQGWVTMTRDTSISTAYMELSRLRSDDTAVYYCATVAGYSSSWQRGWAFDIWGQGTMVTVSS
VL: B12 VL with D1E, R18G, N33S, F53S, K54S, Q91L
B18: G001_gp1_V08_VRC01c_133 (antibody, V domains shown)
VH: QVQLVQSGAEVKKPGASVKVSCKASGYTFTDYYLHWVRQAPGQGLEWMGWINPNSGGTNYARKFQDWVTMTRDTSISTAYMELSRLRSDDTAVYYCARGKTTVSWYFEYWAQGTLVTVSS
VL: B12 VL with D1E, N33Y, F53S, K54S, F84S
B19: G001_LD_V07A_VRC01c_41 (antibody, V domains shown)
VH: QVQLVQSGAEVKKPGASVRVSCRASGYTFSDYYIHWVRQAPGQGLEWMGWINPTSGGTNYAQRFQGRVTMTRDTSISTAYMELSRLRSDDTAVYYCARNLGNSGWYFAWGQGTLVTVSS
VL: DIQMTQSPSTLSASVGDRVTITCRASQSISSWLAWYQQKPGKAPKLLIYKASSLESGVPSRFSGSGSGTEFTLTISNLQPDDFGTYYCQQYETFGQGTKVEIK
B20: G001_gp1_V08_VRC01c_114 (antibody, V domains shown)
VH: QVQLVQSGAEVKKPGASGKVSCKASGYTFTDYYMYWVRQAPGQGLEWIGWINPTSGGSNYAQKFQGRVTMTRDTSISTAYMELSRLRSDDTAVYYCARRSEDRKAFDIWGQGTMVTVSS
VL: B19 VL with R61K, N77S, G84A, E92D, V100L
B21: G001_gp1_V08_VRC01c_122 (antibody, V domains shown)
VH: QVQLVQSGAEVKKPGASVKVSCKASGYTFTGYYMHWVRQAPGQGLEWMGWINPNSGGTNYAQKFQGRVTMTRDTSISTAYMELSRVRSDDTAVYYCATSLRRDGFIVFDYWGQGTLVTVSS
VL: B19 VL with N77S, G84A
B22: G001_gp1_V08_VRC01c_120 (antibody, V domains shown)
VH: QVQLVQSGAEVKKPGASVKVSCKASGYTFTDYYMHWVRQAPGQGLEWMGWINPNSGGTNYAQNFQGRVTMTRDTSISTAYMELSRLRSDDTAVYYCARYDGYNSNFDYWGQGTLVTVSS
VL: B19 VL with S31N, Y36F, S53N, N77S, G84A, Q90K, E92N, V100L
B23: G001_gp1_V08_VRC01c_121 (antibody, V domains shown)
VH: QVQLVQSGAEVRKPGASVKVSCKASGYTFTDYYMHWVRQAPGQGLECMGWINPDSGGTNYAQKFQGRVTMTRDTSISTVYMELSRLRSDDTAVYYCARPALYDSSGYNWAYWGQGSLVTVSS
VL: B19 VL with S30N, S31R, A51T, S56N, S63N, N77S, G84A, Q90H
B24: G001_gp1_V08_VRC01c_138 (antibody, V domains shown)
VH: QVQLVQSGAEVKKPGASVKVSCKASGYTFTDYYMYWVRQAPGQGLEWMGWINPNSGGTNYAQKFQGRVTMTRDTSISTAYMELSGLRSDDTAVYYCARRPNPYSGYDSNAFDIWGQGTMVTVSS
VL: B19 VL with N77S, F83S, G84A
B25: G001_gp1_V08_VRC01c_116 (antibody, V domains shown)
VH: B20 VH with I48M, T54N
VL: B19 VL with R61K, N77S, G84A, E92D, V100L, E101Q

The target of the experiment is eOD-GT8 (engineered outer domain germline-targeting version 8), monomer (HIV-1 gp120 engineered outer domain, …).
In the case of B1, the binding result is “binds”. Regarding B2, the binding result was “binds”.

As for B3, the binding result was “binds”. As to B4, the binding result is “binds”. B5: the binding result is “binds”.

B6: the binding result is on record as “binds”. Then B7, with “binds”; and B8, with “binds”; and B9, with “binds”. In the case of B10, the binding result is “binds”. In the case of B11, the binding result is recorded as “binds”.

Take B12: the binding result is recorded as “binds”. With B13 the entry was “binds”; with B14, “binds”. On to B15, for which the binding result is on record as “binds”. With B16 the entry was “binds”.

As to B17, the binding result was “binds”. B18: the binding result was “binds”.

Turning to B19, the binding result is on record as “binds”. In the case of B20, the binding result is given as “binds”. Turning to B21, the binding result is “binds”.

As for B22, the binding result is reported as “binds”. For the molecule B23, the binding result is on record as “binds”. Take B24: the binding result is “binds”. As to B25, the binding result was “binds”.
